Experimental findings from patent US20110212094A1 (AbbVie / Abbott, published 2011) are described below.

Assay [1] addresses T1, Recombinant Human TNF-α/TNFSF1A (human, UniProt P01375 77-233). Description: cell-based or functional assay.
Assay [2] addresses T1, Recombinant Human TNF-α/TNFSF1A. Description: Biacore SPR. The method, then: (§1) The BIACORE assay (Biacore, Inc, Piscataway, N.J.) determines the affinity of antibodies or DVD-Ig with kinetic measurements of on-rate and off-rate constants. Binding of antibodies or DVD-Ig to a target antigen (for example, a purified recombinant target antigen) is determined by surface plasmon resonance-based measurements with a Biacore® 1000 or 3000 instrument (Biacore® AB, Uppsala, Sweden) using running HBS-EP (10 mM HEPES [pH 7.4], 150 mM NaCl, 3 mM EDTA, and 0.005% surfactant P20) at 25° C. All chemicals are obtained from Biacore® AB (Uppsala, Sweden) or otherwise from a different source as described in the text. For example, approximately 5000 RU of goat anti-mouse IgG, (Fcγ), fragment specific polyclonal antibody (Pierce Biotechnology Inc, Rockford, Ill.) diluted in 10 mM sodium acetate (pH 4.5) is directly immobilized across a CM5 research grade biosensor chip using a standard amine coupling kit according to manufacturer's instructions and procedures at 25 μg/ml. Unreacted moieties on the biosensor surface are blocked with ethanolamine. Modified carboxymethyl dextran surface in flowcell 2 and 4 is used as a reaction surface. Unmodified carboxymethyl dextran without goat anti-mouse IgG in flow cell 1 and 3 is used as the reference surface. For kinetic analysis, rate equations derived from the 1:1 Langmuir binding model are fitted simultaneously to association and dissociation phases of all eight injections (using global fit analysis) with the use of Biaevaluation 4.0.1 software. Purified antibodies or DVD-Ig are diluted in HEPES-buffered saline for capture across goat anti-mouse IgG specific reaction surfaces. Antibodies or DVD-Ig to be captured as a ligand (25 μg/ml) are injected over reaction matrices at a flow rate of 5 μl/min. The association and dissociation rate constants, kₘ (M⁻¹s⁻¹) and koff (s⁻¹) are determined under a continuous flow rate of 25 μl/min. Rate constants are derived by making kinetic binding measurements at different antigen concentrations ranging from 10-200 nM. The equilibrium dissociation constant (M) of the reaction between antibodies or DVD-Igs and the target antigen is then calculated from the kinetic rate constants by the following formula: KD=koff/kₒₙ. Binding is recorded as a function of time and kinetic rate constants are calculated.
On the technique in general: In SPR one partner is held on a chip, and binding of the other changes the refractive index at the surface.

Assay [3] has as its target T2, Recombinant Human SOST (human, UniProt Q9BQB4 24-213).
T2 construct: R&D reagent in Biacore; also called sclerostin; Human sclerostin (Abbott PR-1261069)
T2 sequence (looked up): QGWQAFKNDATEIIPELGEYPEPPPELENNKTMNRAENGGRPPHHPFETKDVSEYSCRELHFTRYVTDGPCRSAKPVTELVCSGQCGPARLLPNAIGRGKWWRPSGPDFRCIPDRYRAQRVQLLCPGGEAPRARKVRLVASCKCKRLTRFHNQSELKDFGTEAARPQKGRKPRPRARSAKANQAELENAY
As to the kind of experiment: Biacore SPR. Here is the method: as §1

As a reminder, the Kd is the concentration at which binding is half-saturated. By koff is commonly meant the rate constant with which the complex falls apart. One may read the kon as the second-order rate constant of association.

T1 sequence (P01375 77-233 limits assumed): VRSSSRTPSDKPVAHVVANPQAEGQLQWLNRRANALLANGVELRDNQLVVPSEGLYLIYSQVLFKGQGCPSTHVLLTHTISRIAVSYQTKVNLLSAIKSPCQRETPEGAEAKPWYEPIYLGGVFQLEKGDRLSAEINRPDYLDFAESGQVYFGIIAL

B1: AB215 (antibody, human IgG1, kappa, V domains shown)
VH: QVQLVESGGGVVQPGRSLRLSCAASGFTFSSYAMHWVRQAPGNGLEWVAFMSYDGSNKYAKDSVKGRFTISRDNSKNTLYLQMNSLRAEDTAVYYCARDRGIAAGGNYYYYGMDVWGQGTTVTVSS
VL: EIVLTQSPATLSLSPGERATLSCRASQSVYSYLAWYQQKPGQAPRLLIYDASNRATGIPARFSGSGSGTDFTLTISSLEPEDFAVYYCQQRSNWPPFTFGPGTKVDIKR
notes: Parent anti-TNF antibody; also called AB215VH
Turning to B1, in assay [1], the “TNFα Neutralization Assay EC50 nM (L929 cells)” value worked out at 1.21 nM. In assay [2], the Kd was found to be 0.157 nM, the off-rate constant (koff) amounted to 0.000272 s⁻¹ and the on-rate constant (kon) was 1.74e+06 M⁻¹ s⁻¹.

B2: AB022 (antibody, V domains shown)
VH: EVQLQQSGPELVTPGASVKISCKASGYTFTDHYMSWVKQSHGKSLEWIGDINPYSGETTYNQKFKGTATLTVDKSSSIAYMEIRGLTSEDSAVYYCARDDYDASPFAYWGQGTLVTVSA
VL: DVQMIQSPSSLSASLGDIVTMTCQASQGTSINLNWFQQKPGKAPKLLIYGSSNLEDGVPSRFSGSRYGTDFTLTISSLEDEDLATYFCLQHSYLPYTFGGGTKLEIKR
notes: Parent anti-SOST antibody; also called SOST; AB022VH
For the molecule B2, in assay [3], the dissociation constant (Kd) turned out to be 0.0408 nM, the koff came out at 0.000396 s⁻¹ and the association rate constant (kon) came out at 9.68e+06 M⁻¹ s⁻¹.

B3: DVD1256 (bispecific antibody, human IgG1, kappa)
heavy: not shown
light: EIVMTQSPATLSVSPGERATLSCRASQSVSSNLAWYQQKPGQAPRLLIHGASIRATGLPARFSGSGSGTEFTLTISSLQSEDFAVYYCQQYNYWWTFGQGTKVEIKRTVAAPDVQMIQSPSSLSASLGDIVTMTCQASQGTSINLNWFQQKPGKAPKLLIYGSSNLEDGVPSRFSGSRYGTDFTLTISSLEDEDLATYFCLQHSYLPYTFGGGTKLEIKRTVAAPSVFIFPPSDEQLKSGTASVVCLLNNFYPREAKVQWKVDNALQSGNSQESVTEQDSKDSTYSLSSTLTLSKADYEKHKVYACEVTHQGLSSPVTKSFNRGEC
notes: constant regions from vectors V1/V2; also called DVD1256H; DVD1256L
With B3, in assay [2], the Kd turned out to be 0.0347 nM, the off-rate (koff) amounted to 8.55e-05 s⁻¹ and the on-rate (kon) worked out at 2.46e+06 M⁻¹ s⁻¹. In addition, in assay [3], the Kd was found to be 1.59 nM, the koff was found to be 0.000365 s⁻¹ and the association rate constant (kon) is 230000 M⁻¹ s⁻¹.

B4: AB214 (antibody, human IgG1, kappa, V domains shown)
VH: EVKLEESGGGLVQPGGSMKLSCVASGFIFSNHWMNWVRQSPEKGLEWVAEIRSKSINSATHYAESVKGRFTISRDDSKSAVYLQMTDLRTEDTGVYYCSRNYYGSTYDYWGQGTTLTVSS
VL: DILLTQSPAILSVSPGERVSFSCRASQFVGSSIHWYQQRTNGSPRLLIKYASESMSGIPSRFSGSGSGTDFTLSINTVESEDIADYYCQESHSWPFTFGSGTNLEVKR
notes: Parent anti-TNF antibody; also called AB214VH
In the case of B4, in assay [1], the “TNFα Neutralization Assay EC50 nM (L929 cells)” value came out at 0.04 nM. Further, in assay [2], the Kd was 0.107 nM, the koff was 0.000291 s⁻¹ and the kon came to 2.73e+06 M⁻¹ s⁻¹.

B5: DVD1229 (bispecific antibody, human IgG1, kappa)
heavy: not shown
light: DVQMIQSPSSLSASLGDIVTMTCQASQGTSINLNWFQQKPGKAPKLLIYGSSNLEDGVPSRFSGSRYGTDFTLTISSLEDEDLATYFCLQHSYLPYTFGGGTKLEIKRTVAAPDILLTQSPAILSVSPGERVSFSCRASQFVGSSIHWYQQRTNGSPRLLIKYASESMSGIPSRFSGSGSGTDFTLSINTVESEDIADYYCQESHSWPFTFGSGTNLEVKRTVAAPSVFIFPPSDEQLKSGTASVVCLLNNFYPREAKVQWKVDNALQSGNSQESVTEQDSKDSTYSLSSTLTLSKADYEKHKVYACEVTHQGLSSPVTKSFNRGEC
notes: constant regions from vectors V1/V2; also called DVD1229H; DVD1229L
Consider B5, for which, in assay [2], the Kd was 3.6 nM, the koff stood at 0.000398 s⁻¹ and the on-rate (kon) was found to be 110000 M⁻¹ s⁻¹. In assay [3], the Kd amounted to 0.0226 nM, the koff amounted to 0.00019 s⁻¹ and the association rate constant (kon) came out at 8.43e+06 M⁻¹ s⁻¹.

B6: AB213 (antibody, human IgG1, kappa, V domains shown)
VH: QVQLKESGPGLVAPSQSLSITCTVSGFSLTDYGVNWVRQPPGKGLEWLGMIWGDGSTDYDSTLKSRLSISKDNSKSQIFLKMNSLQTDDTARYYCAREWHHGPVAYWGQGTLVTVSA
VL: DIVMTQSHKFMSTTVGDRVSITCKASQAVSSAVAWYQQKPGQSPKLLIYWASTRHTGVPDRFTGSGSVTDFTLTIHNLQAEDLALYYCQQHYSTPFTFGSGTKLEIKR
notes: Parent anti-TNF antibody; also called AB213VH
On to B6, for which the “TNFα Neutralization Assay EC50 nM (L929 cells)” value in assay [1] is 0.189 nM. In addition, in assay [2], the dissociation constant Kd was determined as 0.0335 nM, the koff turned out to be 0.000108 s⁻¹ and the kon was 3.23e+06 M⁻¹ s⁻¹.
